# In the Human Domainome abundance scans (Beltran et al. 2025):
# ± gives the uncertainty stated by the source.
# B1: Membrane-associated guanylate kinase, WW and PDZ domain-containing protein 2, residues 601 to 682; numbered along this chain, Q86UL8 (parent)
# chain: AELMTLTIVKGAQGFGFTIADSPTGQRVKQILDIQGCPGLCEGDLIVEINQQNVQNLSHTEVVDILKDCPIGSETSLIIHRG
# B2: Pituitary-specific positive transcription factor 1, residues 130 to 198; numbered along this chain, P28069 (parent)
# chain: RELEKFANEFKVRRIKLGYTQTNVGEALAAVHGSEFSQTTICRFENLQLSFKNACKLKAILSKWLEEAE
# Variants of: B1
# Experiment: abundance fitness (aPCA) (normalised: wild type 0, dead -1); higher = more abundant; growth selection in yeast, the domain comes from the species named
# Conditions: Homo sapiens
row,Variant,abundance fitness
1,H59W,-0.074 ± 0.1
2,E42V,-0.062 ± 0.05
3,R27T,0.021 ± 0.11
4,S76P,-0.046 ± 0.072
5,E2W,-0.214 ± 0.046
6,I65R,-0.064 ± 0.034
7,K67L,-0.083 ± 0.097
8,G25D,-0.766 ± 0.23
9,I31S,-0.251 ± 0.079
10,G14Y,-0.071 ± 0.04
11,H59Q,-0.014 ± 0.1
12,G43R,-0.182 ± 0.079
13,G16D,0.071 ± 0.049
14,L3M,0.029 ± 0.041
15,L40V,-0.061 ± 0.081
16,G82F,-0.25 ± 0.17
17,N50G,-0.058 ± 0.064
18,L77A,-0.124 ± 0.07
19,T60S,-0.032 ± 0.093
20,I19S,-0.634 ± 0.17
21,V28G,-0.655 ± 0.1
22,E48R,-0.103 ± 0.056
23,Q55C,-0.111 ± 0.14
24,E48S,-0.004 ± 0.089

row,Variant,abundance fitness
1,F15A,-0.179 ± 0.045
2,T24D,-0.037 ± 0.05
3,N56T,-0.03 ± 0.11
4,C41P,-1.02 ± 0.16
5,F17Q,-1.07 ± 0.23
6,N56A,-0.076 ± 0.071
7,L57G,-0.152 ± 0.065
8,G14E,-0.016 ± 0.053
9,L3S,-0.028 ± 0.032
10,M4W,-0.102 ± 0.032
11,C41T,0.046 ± 0.048
12,G39S,-0.035 ± 0.084
13,S76W,-0.123 ± 0.076
14,D21K,-0.039 ± 0.2
15,E42H,-0.23 ± 0.2
16,E42C,-0.123 ± 0.064
17,V9A,-0.082 ± 0.035
18,L40P,-0.232 ± 0.09
19,H59Y,-0.109 ± 0.11
20,G14L,-0.105 ± 0.032
21,I79V,-0.102 ± 0.073
22,V47A,0.036 ± 0.082
23,G43K,0.199 ± 0.36
24,L45R,-0.244 ± 0.32

row,Variant,abundance fitness
1,V47Y,-0.337 ± 0.18
2,V54P,-0.806 ± 0.064
3,F17K,-0.978 ± 0.13
4,D68P,-0.233 ± 0.26
5,P38E,-0.11 ± 0.09
6,Q51K,-0.024 ± 0.042
7,D33R,-0.061 ± 0.041
8,E42W,-0.171 ± 0.064
9,R27M,-0.066 ± 0.29
10,C69R,-0.08 ± 0.08
11,A12G,0.01 ± 0.032
12,T24G,0.041 ± 0.035
13,E42I,-0.087 ± 0.089
14,G11A,0.018 ± 0.046
15,M4E,-0.106 ± 0.044
16,V62H,-0.598 ± 0.35
17,A20Q,0.217 ± 0.28
18,N53H,-0.045 ± 0.036
19,P70D,0.077 ± 0.29
20,T18N,0.001 ± 0.086
21,R81A,-0.098 ± 0.079
22,D64W,-0.047 ± 0.1
23,D21S,-0.054 ± 0.083
24,S22P,-0.671 ± 0.19

row,Variant,abundance fitness
1,I71G,0.038 ± 0.074
2,I34D,-0.036 ± 0.08
3,L66Q,-0.557 ± 0.31
4,D68V,0.046 ± 0.082
5,I19Y,-0.148 ± 0.12
6,S76A,-0.018 ± 0.074
7,G82Q,0.092 ± 0.37
8,N50F,-0.71 ± 0.48
9,F15Y,-0.048 ± 0.064
10,S73R,-0.132 ± 0.089
11,L40F,0.047 ± 0.25
12,M4D,-0.013 ± 0.056
13,E48L,-0.114 ± 0.079
14,T75Q,-0.148 ± 0.14
15,I65T,-0.038 ± 0.048
16,I79R,-0.24 ± 0.064
17,N53L,-0.069 ± 0.03
18,Q30Y,-0.064 ± 0.15
19,V54R,-0.939 ± 0.082
20,I79L,0.036 ± 0.077
21,Q35T,0.209 ± 0.35
22,P23G,-0.09 ± 0.039
23,I34A,-0.026 ± 0.053
24,S76Y,0.09 ± 0.21

row,Variant,abundance fitness
1,E74S,-0.16 ± 0.1
2,H80N,0.124 ± 0.19
3,G16L,-0.014 ± 0.033
4,K29V,-0.122 ± 0.086
5,L45V,-0.232 ± 0.12
6,T75R,-0.113 ± 0.075
7,C37G,-0.28 ± 0.097
8,S58N,-0.007 ± 0.23
9,A20R,-0.172 ± 0.081
10,L77M,0.008 ± 0.12
11,I78H,-0.157 ± 0.2
12,A12H,-0.209 ± 0.075
13,I78M,0.144 ± 0.14
14,T7N,0.044 ± 0.087
15,D21G,-0.082 ± 0.081
16,I34S,-0.017 ± 0.063
17,E61F,-0.381 ± 0.39
18,Q26W,-0.105 ± 0.051
19,F15V,-0.003 ± 0.033
20,I65M,-0.051 ± 0.05
21,E48C,-0.145 ± 0.1
22,R81P,0.039 ± 0.083

# Variants of: B2
# Experiment: as above
# Conditions: Homo sapiens
row,Variant,abundance fitness
1,F6M,-0.753 ± 0.095
2,T20S,-0.044 ± 0.056
3,F51G,-0.39 ± 0.15
4,K56W,-0.533 ± 0.085
5,K5A,-0.015 ± 0.045
6,R14C,-0.79 ± 0.32
7,K16S,-0.365 ± 0.078
8,L17G,-0.889 ± 0.16
9,T39R,-0.096 ± 0.064
10,L61M,-0.491 ± 0.097
11,N8E,-0.168 ± 0.15
12,E35A,-0.097 ± 0.065
13,S50W,-0.126 ± 0.092
14,G33L,-1.08 ± 0.12
15,W64L,-0.795 ± 0.27
16,L49H,-0.721 ± 0.18
17,K58F,-0.933 ± 0.26
18,Q48A,-0.629 ± 0.16
19,Y19Q,-0.149 ± 0.14
20,K11F,-1.02 ± 0.39
21,E2Y,-0.651 ± 0.27
22,L57H,-0.226 ± 0.11
23,G18P,-0.608 ± 0.28
24,T20Q,-0.911 ± 0.2
25,Q21D,-0.674 ± 0.21

row,Variant,abundance fitness
1,Q21N,-0.766 ± 0.29
2,E2D,-0.109 ± 0.2
3,A7S,-0.425 ± 0.19
4,S37R,-0.743 ± 0.066
5,F10M,-0.621 ± 0.2
6,K16G,-0.559 ± 0.088
7,T39Q,0.13 ± 0.11
8,Q48Y,-0.79 ± 0.41
9,N53M,0.058 ± 0.11
10,L47C,0.155 ± 0.15
11,W64R,-0.79 ± 0.14
12,V12L,-0.16 ± 0.059
13,L17T,-0.941 ± 0.25
14,E9C,-0.714 ± 0.26
15,F51T,-0.07 ± 0.14
16,Q21F,-0.932 ± 0.28
17,T39M,-0.147 ± 0.085
18,F44H,-0.565 ± 0.24
19,K58M,-0.151 ± 0.059
20,T39Y,-0.447 ± 0.33
21,E35L,-0.222 ± 0.045
22,C55G,-0.395 ± 0.062
23,R43G,-0.388 ± 0.14
24,L47V,-0.888 ± 0.19
